Legend:
[1] = target: human IL-21R expressed on cells (human, UniProt Q9HBE5 20-538); experiment: cell-based or functional assay
[2] = target: murine IL-21R expressed on cells (murine, UniProt Q9JHX3 20-529); experiment: cell-based or functional assay
[3] = target: T1, murine IL-21R extracellular domain His-Flag fusion protein (murine, UniProt Q9JHX3 20-237); experiment: competition ELISA; competitor plate-bound 18A5 IgG
T1 construct: Biotinylated in the ELISAs; also called mIL-21R-H/F; murine IL-21R-H/F
Description: Blocked plates were washed 3× with PBS, and 50 μl/well of scFv/IL-21R mixtures were transferred to the appropriate plates and incubated for 1 hr at RT. Plates were washed 5× with PBS prior to the addition of a 1:6000 dilution of horseradish peroxidase-conjugated streptavidin (Southern Biotech, Birmingham, Ala.) secondary antibody to detect bound biotinylated mIL-21R-H/F. Plates were then incubated for 1 hr at RT and washed 7× with PBS. Signal was developed using 3,3′,5,5′-tetramethylbenzidine (TMB), the reaction stopped with H₂SO₄, and the absorbance read at 450 nm on an ENVISION™ plate reader (Perkin Elmer).

Chain of human IL-21R expressed on cells (Q9HBE5 20-538 limits assumed): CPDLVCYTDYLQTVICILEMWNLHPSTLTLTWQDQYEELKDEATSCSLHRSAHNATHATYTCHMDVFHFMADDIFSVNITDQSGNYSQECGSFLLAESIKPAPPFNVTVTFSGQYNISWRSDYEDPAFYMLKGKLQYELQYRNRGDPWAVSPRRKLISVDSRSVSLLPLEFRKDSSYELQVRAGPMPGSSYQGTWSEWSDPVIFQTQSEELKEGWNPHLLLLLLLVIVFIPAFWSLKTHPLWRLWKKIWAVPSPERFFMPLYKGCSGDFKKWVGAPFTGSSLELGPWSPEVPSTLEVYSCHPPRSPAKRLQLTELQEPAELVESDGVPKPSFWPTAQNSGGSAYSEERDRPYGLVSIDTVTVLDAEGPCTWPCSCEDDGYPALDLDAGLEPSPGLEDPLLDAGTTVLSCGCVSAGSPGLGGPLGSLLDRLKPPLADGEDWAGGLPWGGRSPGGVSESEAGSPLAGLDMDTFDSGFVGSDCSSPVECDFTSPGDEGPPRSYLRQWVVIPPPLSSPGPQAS

Binder | IC50, Human IL-21R-BaF3 Neutralization Assay [1] | IC50, Human IL-21R-TF1 Neutralization Assay [1] | IC50, Murine IL-21R-BaF3 Neutralization Assay [2] | IC50 [3]
scFv L8 (scFv) scFv: QVQLQESGPGLVKTSETLSLTCAVSGYSISSGYYWGWIRQPPGKGLEWIGSISHTGNTYYNPPLKSRVTISVDTSKNQFSLKLSSVTAADTAVYYCARGGGISRPEYWGKGTLVTVSSGGGGSGGGGSGGGGSALSSELTQDPPVSVALGQTVTLTCQGDSLRTYYASWYQQKSGQAPILLLYGKHKRPSGIPDRFSGSTSGDTASLTITGAQAEDEADYYCTTRSTQGNPHVLFGGGTQLTVL | 4.1 nM | 51.3 nM | 715 nM | 7 nM
scFv L9 (scFv) scFv: QVQLQESGPGLVKTSETLSLTCAVSGYSISSGYYWGWIRQPPGKGLEWIGSISHTGNTYYNPPLKSRVTISVDTSKNQFSLKLSSVTAADTAVYYCARGGGISRPEYWGKGTLVTVSSGGGGSGGGGSGGGGSALSSELTQDPPVSVALGQTVTLTCQGDSLRTYYASWYQQKSGQAPILLLYGKHKRPSGIPDRFSGSTSGDTASLTITGAQAEDEADYYCVARSNKGNPHVLFGGGTQLTVL | 2.8 nM | 27.7 nM | 3.61 nM | 7 nM
scFv L11 (scFv) scFv: QVQLQESGPGLVKTSETLSLTCAVSGYSISSGYYWGWIRQPPGKGLEWIGSISHTGNTYYNPPLKSRVTISVDTSKNQFSLKLSSVTAADTAVYYCARGGGISRPEYWGKGTLVTVSSGGGGSGGGGSGGGGSALSSELTQDPPVSVALGQTVTLTCQGDSLRTYYASWYQQKSGQAPILLLYGKHKRPSGIPDRFSGSTSGDTASLTITGAQAEDEADYYCSSRSRHGNPHVLFGGGTQLTVL | 4.2 nM | 38.3 nM | 10 nM | 6 nM
scFv L12 (scFv) scFv: QVQLQESGPGLVKTSETLSLTCAVSGYSISSGYYWGWIRQPPGKGLEWIGSISHTGNTYYNPPLKSRVTISVDTSKNQFSLKLSSVTAADTAVYYCARGGGISRPEYWGKGTLVTVSSGGGGSGGGGSGGGGSALSSELTQDPPVSVALGQTVTLTCQGDSLRTYYASWYQQKSGQAPILLLYGKHKRPSGIPDRFSGSTSGDTASLTITGAQAEDEADYYCVARGTRGNPHVLFGGGTQLTVL | 2.6 nM | 54.9 nM | 87.8 nM | 8 nM
scFv L13 (scFv) scFv: QVQLQESGPGLVKTSETLSLTCAVSGYSISSGYYWGWIRQPPGKGLEWIGSISHTGNTYYNPPLKSRVTISVDTSKNQFSLKLSSVTAADTAVYYCARGGGISRPEYWGKGTLVTVSSGGGGSGGGGSGGGGSALSSELTQDPPVSVALGQTVTLTCQGDSLRTYYASWYQQKSGQAPILLLYGKHKRPSGIPDRFSGSTSGDTASLTITGAQAEDEADYYCVTRNRYGNPHVLFGGGTQLTVL | 11 nM | 257 nM | 1.25 nM | 7 nM
scFv L14 (scFv) scFv: QVQLQESGPGLVKTSETLSLTCAVSGYSISSGYYWGWIRQPPGKGLEWIGSISHTGNTYYNPPLKSRVTISVDTSKNQFSLKLSSVTAADTAVYYCARGGGISRPEYWGKGTLVTVSSGGGGSGGGGSGGGGSALSSELTQDPPVSVALGQTVTLTCQGDSLRTYYASWYQQKSGQAPILLLYGKHKRPSGIPDRFSGSTSGDTASLTITGAQAEDEADYYCMARSRKGNPHVLFGGGTQLTVL | 3.2 nM | 33.5 nM | 6.49 nM | 6 nM
scFv L15 (scFv) scFv: QVQLQESGPGLVKTSETLSLTCAVSGYSISSGYYWGWIRQPPGKGLEWIGSISHTGNTYYNPPLKSRVTISVDTSKNQFSLKLSSVTAADTAVYYCARGGGISRPEYWGKGTLVTVSSGGGGSGGGGSGGGGSALSSELTQDPPVSVALGQTVTLTCQGDSLRTYYASWYQQKSGQAPILLLYGKHKRPSGIPDRFSGSTSGDTASLTITGAQAEDEADYYCSTRAIHGNPHVLFGGGTQLTVL | 3.3 nM | 30.3 nM | 53.5 nM | 14 nM
scFv L16 (scFv) scFv: QVQLQESGPGLVKTSETLSLTCAVSGYSISSGYYWGWIRQPPGKGLEWIGSISHTGNTYYNPPLKSRVTISVDTSKNQFSLKLSSVTAADTAVYYCARGGGISRPEYWGKGTLVTVSSGGGGSGGGGSGGGGSALSSELTQDPPVSVALGQTVTLTCQGDSLRTYYASWYQQKSGQAPILLLYGKHKRPSGIPDRFSGSTSGDTASLTITGAQAEDEADYYCVTRSAKGNPHVLFGGGTQLTVL | 3.7 nM | 67.4 nM | 4.71 nM | 6 nM
scFv L17 (scFv) scFv: QVQLQESGPGLVKTSETLSLTCAVSGYSISSGYYWGWIRQPPGKGLEWIGSISHTGNTYYNPPLKSRVTISVDTSKNQFSLKLSSVTAADTAVYYCARGGGISRPEYWGKGTLVTVSSGGGGSGGGGSGGGGSALSSELTQDPPVSVALGQTVTLTCQGDSLRTYYASWYQQKSGQAPILLLYGKHKRPSGIPDRFSGSTSGDTASLTITGAQAEDEADYYCSTRSRKGNPHVLFGGGTQLTVL | 1.6 nM | 60.3 nM | 2.66 nM | 12 nM
scFv L18 (scFv) scFv: QVQLQESGPGLVKTSETLSLTCAVSGYSISSGYYWGWIRQPPGKGLEWIGSISHTGNTYYNPPLKSRVTISVDTSKNQFSLKLSSVTAADTAVYYCARGGGISRPEYWGKGTLVTVSSGGGGSGGGGSGGGGSALSSELTQDPPVSVALGQTVTLTCQGDSLRTYYASWYQQKSGQAPILLLYGKHKRPSGIPDRFSGSTSGDTASLTITGAQAEDEADYYCVTRSVKGNPHVLFGGGTQLTVL | 3.7 nM | 54.4 nM | 8.34 nM | 8 nM
scFv L19 (scFv) scFv: QVQLQESGPGLVKTSETLSLTCAVSGYSISSGYYWGWIRQPPGKGLEWIGSISHTGNTYYNPPLKSRVTISVDTSKNQFSLKLSSVTAADTAVYYCARGGGISRPEYWGKGTLVTVSSGGGGSGGGGSGGGGSALSSELTQDPPVSVALGQTVTLTCQGDSLRTYYASWYQQKSGQAPILLLYGKHKRPSGIPDRFSGSTSGDTASLTITGAQAEDEADYYCVARAVRGNPHVLFGGGTQLTVL | 4.5 nM | 35.3 nM | 13.6 nM | 15 nM
scFv L20 (scFv) scFv: QVQLQESGPGLVKTSETLSLTCAVSGYSISSGYYWGWIRQPPGKGLEWIGSISHTGNTYYNPPLKSRVTISVDTSKNQFSLKLSSVTAADTAVYYCARGGGISRPEYWGKGTLVTVSSGGGGSGGGGSGGGGSALSSELTQDPPVSVALGQTVTLTCQGDSLRTYYASWYQQKSGQAPILLLYGKHKRPSGIPDRFSGSTSGDTASLTITGAQAEDEADYYCVSRSAKGNPHVLFGGGTQLTVL | 3.1 nM | 57.5 nM | 15.4 nM | 5 nM
scFv L21 (scFv) scFv: QVQLQESGPGLVKTSETLSLTCAVSGYSISSGYYWGWIRQPPGKGLEWIGSISHTGNTYYNPPLKSRVTISVDTSKNQFSLKLSSVTAADTAVYYCARGGGISRPEYWGKGTLVTVSSGGGGSGGGGSGGGGSALSSELTQDPPVSVALGQTVTLTCQGDSLRTYYASWYQQKSGQAPILLLYGKHKRPSGIPDRFSGSTSGDTASLTITGAQAEDEADYYCATRAVRGNPHVLFGGGTQLTVL | 9.4 nM | ~100 nM | 162 nM | 28 nM
scFv L24 (scFv) scFv: QVQLQESGPGLVKTSETLSLTCAVSGYSISSGYYWGWIRQPPGKGLEWIGSISHTGNTYYNPPLKSRVTISVDTSKNQFSLKLSSVTAADTAVYYCARGGGISRPEYWGKGTLVTVSSGGGGSGGGGSGGGGSALSSELTQDPPVSVALGQTVTLTCQGDSLRTYYASWYQQKSGQAPILLLYGKHKRPSGIPDRFSGSTSGDTASLTITGAQAEDEADYYCIARSNKGNPHVLFGGGTQLTVL | 2.4 nM | 18.7 nM | 3.73 nM | 6 nM
scFv L25 (scFv) scFv: QVQLQESGPGLVKTSETLSLTCAVSGYSISSGYYWGWIRQPPGKGLEWIGSISHTGNTYYNPPLKSRVTISVDTSKNQFSLKLSSVTAADTAVYYCARGGGISRPEYWGKGTLVTVSSGGGGSGGGGSGGGGSALSSELTQDPPVSVALGQTVTLTCQGDSLRTYYASWYQQKSGQAPILLLYGKHKRPSGIPDRFSGSTSGDTASLTITGAQAEDEADYYCTTRSNKGNPHVLFGGGTQLTVL | 3.7 nM | 33.1 nM | 15.6 nM | 9 nM
